Consider three substances from paper PMC3288308.

Like-named read-outs stand apart in the source and are kept apart here.

For assay [1], the target named is Human plasma fibronectin (human). The assay can be described thus: SPR.
Assay [2] has as its target Treponema pallidum adhesin protein fragment rTp0483 (recombinant C-terminal portion of Tp0483) (Treponema pallidum). In words: SPR.
Assay [3] shares this target. The assay can be described thus: SPR. The source holds these as a separate data set.
Assay [4] has the same target. In words: quartz crystal microbalance.
Assay [5] shares this target. The assay can be described thus: quartz crystal microbalance. The source holds these as a separate data set.
Assay [6] shares this target. The assay can be described thus: SPR. This is another data set of the same source.
Assay [7] has the same target. The assay can be described thus: SPR. The source holds these as a separate data set.
The target is the same in assay [8]. In words: quartz crystal microbalance. This is another data set of the same source.
For assay [9] the target is unchanged. In words: quartz crystal microbalance. The source holds these as a separate data set.

Chain of Treponema pallidum adhesin protein fragment rTp0483 (recombinant C-terminal portion of Tp0483) (Treponema pallidum) (O83496 22-374): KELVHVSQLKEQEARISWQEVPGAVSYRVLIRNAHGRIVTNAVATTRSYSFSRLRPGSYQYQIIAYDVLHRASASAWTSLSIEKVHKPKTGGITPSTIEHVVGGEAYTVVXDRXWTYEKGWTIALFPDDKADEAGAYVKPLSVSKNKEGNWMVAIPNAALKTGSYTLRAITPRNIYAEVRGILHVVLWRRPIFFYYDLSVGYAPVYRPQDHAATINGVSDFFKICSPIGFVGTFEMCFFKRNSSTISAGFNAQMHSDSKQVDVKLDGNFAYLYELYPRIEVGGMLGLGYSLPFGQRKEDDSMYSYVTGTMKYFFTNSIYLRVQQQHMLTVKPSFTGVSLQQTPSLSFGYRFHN

For the substance Type A gelatin, in [1], the surface mass density of gelatin bound (SPR) on FN adsorbed on the SAM came out at 940 pg/mm^2 and the surface mass density of gelatin bound (SPR) on rTp0483+FN worked out at 211 pg/mm^2.
In assay [1], “Peptide D2, residues 316-333 of the complete Tp0483 sequence” displayed a % FN binding to rTp0483 with the peptide, of FN alone of 88%.
For “Human plasma fibronectin (natural protein)”, in assay [2], the KA1 (bivalent analyte model, reaction 1) was determined as 1.53e+09 M⁻¹ and the KA2 (bivalent analyte model, reaction 2) is 225 1/RU. Also, in assay [3], the KA2 (bivalent analyte model, reaction 2) is 0.0403 1/RU and the KD1 (inverse of KA1, reaction 1 of the bivalent analyte model) came out at 0.97 nM. Also, the surface mass density of FN bound (QCM) in [4] came to 1380 pg/mm^2. For the same substance, in assay [5], the surface mass density of FN bound (QCM) stood at 3.5 pg/mm^2. Besides, in assay [6], the KA1 (bivalent analyte model, reaction 1) amounted to 1.03e+09 M⁻¹; the KA2 (bivalent analyte model, reaction 2) is 403 1/RU; the surface mass density of FN bound (SPR) in the presence of anti-Tp0483#1 amounted to 373 pg/mm^2; the surface mass density of FN bound (SPR) in the presence of anti-Tp0483#2 stood at 270 pg/mm^2. Moreover, in assay [6], the surface mass density of FN bound (SPR), FN alone turned out to be 282 pg/mm^2; the surface mass density of FN bound (SPR), FN preincubated with 20 µg/mL anti-RGD stood at 91 pg/mm^2; the surface mass density of FN bound (SPR), FN preincubated with 50 µg/mL anti-RGD worked out at 47 pg/mm^2; the surface mass density of FN bound (SPR), no antibody came out at 846 pg/mm^2. Moreover, in assay [7], the KA2 (bivalent analyte model, reaction 2) was 0.0225 1/RU and the KD1 (inverse of KA1, reaction 1 of the bivalent analyte model) was 0.65 nM. Further, the surface mass density of FN bound (QCM) in [8] stood at 60 pg/mm^2. Also, in assay [9], the surface mass density of FN bound (QCM) worked out at 363 pg/mm^2.
